Measurements published in US20250339569A1 (3B PHARMACEUTICALS, published 2025).
Starred links: 1 amine or outer side, 2 acyl side, 3 side chain; linkers in the order of their positions; H or OH if unused. Positions of bridges follow the written chain, without caps; N, C: chain ends. Non-standard residues stand in square brackets, D forms with d. Groups on a side chain read outwards from the residue. No end group written: not given here. *: point of attachment. DOTA = O=C(O)CN1CCN(CC(=O)O)CCN(CC(=O)*)CCN(CC(=O)O)CC1; mXylylene = c1cc(C[*:1])cc(C[*:2])c1; NMeY = CN[C@@H](Cc1ccc(O)cc1)C(=O)O; APAc = not defined here; Apr = not defined here; AEEA = NCCOCCOCC(=O)O

B1: 3BP-3433 (peptide)
peptide: Ac-VYCE[dP]DWLTWAC
modifications: linker 3-12 via mXylylene; not fully specified (C-terminus)
notes: The printed formula ends at '-Ape-NH'; also called Ac-Val-Tyr-[Cys(3MeBn)-Glu-pro-Asp-Trp-Leu-Thr-Trp-Ala-Cys]-Mamb-Ape-NH
B2: 3BP-3583 (peptide)
peptide: {DOTA-APAc}-VYCE[dP]DWLTWSC-NH2
modifications: linker 3-12 via mXylylene; reading uncertain
notes: also called DOTA-APAc-Val-Tyr-[Cys(3MeBn)-Glu-pro-Asp-Trp-Leu-Thr-Trp-Ser-Cys]-NH2
B3: 3BP-3599 (peptide)
peptide: {DOTA-APAc}-VYCE[dP]DWLTWRC-NH2
modifications: linker 3-12 via mXylylene; reading uncertain
notes: also called DOTA-APAc-Val-Tyr-[Cys(3MeBn)-Glu-pro-Asp-Trp-Leu-Thr-Trp-Arg-Cys]-NH2
B4: 3BP-3570 (peptide)
peptide: Ac-VFCE[dP]DWLTWSC-NH2
modifications: linker 3-12 via mXylylene
SMILES: CC(=O)N[C@H](C(=O)N[C@@H](Cc1ccccc1)C(=O)N[C@H]1CSCc2cccc(c2)CSC[C@@H](C(N)=O)NC(=O)[C@H](CO)NC(=O)[C@H](Cc2c[nH]c3ccccc23)NC(=O)[C@H]([C@@H](C)O)NC(=O)[C@H](CC(C)C)NC(=O)[C@H](Cc2c[nH]c3ccccc23)NC(=O)[C@H](CC(=O)O)NC(=O)[C@H]2CCCN2C(=O)[C@H](CCC(=O)O)NC1=O)C(C)C
notes: also called Ac-Val-Phe-[Cys(3MeBn)-Glu-pro-Asp-Trp-Leu-Thr-Trp-Ser-Cys]-NH2
B5: 3BP-3596 (peptide)
peptide: {DOTA-APAc}-VYCE[dP]DFLTWSC-NH2
modifications: linker 3-12 via mXylylene; reading uncertain
notes: also called DOTA-APAc-Val-Tyr-[Cys(3MeBn)-Glu-pro-Asp-Phe-Leu-Thr-Trp-Ser-Cys]-NH2
B6: 3BP-3733 (peptide)
peptide: Ac-VFCE[dP]DWLTWE([Apr-AEEA-DOTA])C-NH2
modifications: linker 3-12 via 3MeBn; reading uncertain
notes: also called Ac-Val-Phe-[Cys(3MeBn)-Glu-pro-Asp-Trp-Leu-Thr-Trp-Glu(NH-Apr-O2Oc-DOTA′)-Cys]-NH2
B7: 3BP-3732 (peptide)
peptide: Ac-SYCE[dP]DWLTWE([Apr-AEEA-DOTA])C-NH2
modifications: linker 3-12 via 3MeBn; reading uncertain
notes: also called Ac-Ser-Tyr-[Cys(3MeBn)-Glu-pro-Asp-Trp-Leu-Thr-Trp-Glu(NH-Apr-O2Oc-DOTA′)-Cys]-NH2
B8: 3BP-3434 (peptide)
peptide: Ac-VYCE[dP]DWLTWAC
modifications: linker 3-12 via mXylylene; not fully specified (C-terminus)
notes: also called Ac-Val-Tyr-[Cys(3MeBn)-Glu-pro-Asp-Trp-Leu-Thr-Trp-Ala-Cys]-Ape-NH-DOTA′
B9: 3BP-3478 (peptide)
peptide: Ac-VYCE[dP]DWLTWE([Apr-DOTA])C-NH2
modifications: linker 3-12 via mXylylene; reading uncertain
notes: also called Ac-Val-Tyr-[Cys(3MeBn)-Glu-pro-Asp-Trp-Leu-Thr-Trp-Glu(NH-Apr-DOTA′)-Cys]-NH2
B10: 3BP-3589 (peptide)
peptide: Ac-V[NMeY]CE[dP]DWLTWSC-NH2
modifications: linker 3-12 via mXylylene
SMILES: CC(=O)N[C@H](C(=O)N(C)[C@@H](Cc1ccc(O)cc1)C(=O)N[C@H]1CSCc2cccc(c2)CSC[C@@H](C(N)=O)NC(=O)[C@H](CO)NC(=O)[C@H](Cc2c[nH]c3ccccc23)NC(=O)[C@H]([C@@H](C)O)NC(=O)[C@H](CC(C)C)NC(=O)[C@H](Cc2c[nH]c3ccccc23)NC(=O)[C@H](CC(=O)O)NC(=O)[C@H]2CCCN2C(=O)[C@H](CCC(=O)O)NC1=O)C(C)C
notes: also called Ac-Val-Nmy-[Cys(3MeBn)-Glu-pro-Asp-Trp-Leu-Thr-Trp-Ser-Cys]-NH2
B11: 3BP-3588 (peptide)
peptide: Ac-VRCE[dP]DWLTWSC-NH2
modifications: linker 3-12 via mXylylene
SMILES: CC(=O)N[C@H](C(=O)N[C@@H](CCCNC(=N)N)C(=O)N[C@H]1CSCc2cccc(c2)CSC[C@@H](C(N)=O)NC(=O)[C@H](CO)NC(=O)[C@H](Cc2c[nH]c3ccccc23)NC(=O)[C@H]([C@@H](C)O)NC(=O)[C@H](CC(C)C)NC(=O)[C@H](Cc2c[nH]c3ccccc23)NC(=O)[C@H](CC(=O)O)NC(=O)[C@H]2CCCN2C(=O)[C@H](CCC(=O)O)NC1=O)C(C)C
notes: also called Ac-Val-Arg-[Cys(3MeBn)-Glu-pro-Asp-Trp-Leu-Thr-Trp-Ser-Cys]-NH2
B12: 3BP-3597 (peptide)
peptide: {DOTA-APAc}-VYCE[dP]DWLHWSC-NH2
modifications: linker 3-12 via mXylylene; reading uncertain
notes: also called DOTA-APAc-Val-Tyr-[Cys(3MeBn)-Glu-pro-Asp-Trp-Leu-His-Trp-Ser-Cys]-NH2
B13: 3BP-3565 (peptide)
peptide: Ac-VYCE[dP]DWLTWSC-NH2
modifications: linker 3-12 via mXylylene
SMILES: CC(=O)N[C@H](C(=O)N[C@@H](Cc1ccc(O)cc1)C(=O)N[C@H]1CSCc2cccc(c2)CSC[C@@H](C(N)=O)NC(=O)[C@H](CO)NC(=O)[C@H](Cc2c[nH]c3ccccc23)NC(=O)[C@H]([C@@H](C)O)NC(=O)[C@H](CC(C)C)NC(=O)[C@H](Cc2c[nH]c3ccccc23)NC(=O)[C@H](CC(=O)O)NC(=O)[C@H]2CCCN2C(=O)[C@H](CCC(=O)O)NC1=O)C(C)C
notes: also called Ac-Val-Tyr-[Cys(3MeBn)-Glu-pro-Asp-Trp-Leu-Thr-Trp-Ser-Cys]-NH2
B14: 3BP-3566 (peptide)
peptide: Ac-SYCE[dP]DWLTWSC-NH2
modifications: linker 3-12 via mXylylene
SMILES: CC(=O)N[C@@H](CO)C(=O)N[C@@H](Cc1ccc(O)cc1)C(=O)N[C@H]1CSCc2cccc(c2)CSC[C@@H](C(N)=O)NC(=O)[C@H](CO)NC(=O)[C@H](Cc2c[nH]c3ccccc23)NC(=O)[C@H]([C@@H](C)O)NC(=O)[C@H](CC(C)C)NC(=O)[C@H](Cc2c[nH]c3ccccc23)NC(=O)[C@H](CC(=O)O)NC(=O)[C@H]2CCCN2C(=O)[C@H](CCC(=O)O)NC1=O
notes: also called Ac-Ser-Tyr-[Cys(3MeBn)-Glu-pro-Asp-Trp-Leu-Thr-Trp-Ser-Cys]-NH2
B15: 3BP-3571 (peptide)
peptide: Ac-VSCE[dP]DWLTWSC-NH2
modifications: linker 3-12 via mXylylene
SMILES: CC(=O)N[C@H](C(=O)N[C@@H](CO)C(=O)N[C@H]1CSCc2cccc(c2)CSC[C@@H](C(N)=O)NC(=O)[C@H](CO)NC(=O)[C@H](Cc2c[nH]c3ccccc23)NC(=O)[C@H]([C@@H](C)O)NC(=O)[C@H](CC(C)C)NC(=O)[C@H](Cc2c[nH]c3ccccc23)NC(=O)[C@H](CC(=O)O)NC(=O)[C@H]2CCCN2C(=O)[C@H](CCC(=O)O)NC1=O)C(C)C
notes: also called Ac-Val-Ser-[Cys(3MeBn)-Glu-pro-Asp-Trp-Leu-Thr-Trp-Ser-Cys]-NH2
B16: 3BP-3595 (peptide)
peptide: {DOTA-APAc}-VYCE[dP]SWLTWSC-NH2
modifications: linker 3-12 via mXylylene; reading uncertain
notes: also called DOTA-APAc-Val-Tyr-[Cys(3MeBn)-Glu-pro-Ser-Trp-Leu-Thr-Trp-Ser-Cys]-NH2
B17: 3BP-3567 (peptide)
peptide: Ac-TYCE[dP]DWLTWSC-NH2
modifications: linker 3-12 via mXylylene
SMILES: CC(=O)N[C@H](C(=O)N[C@@H](Cc1ccc(O)cc1)C(=O)N[C@H]1CSCc2cccc(c2)CSC[C@@H](C(N)=O)NC(=O)[C@H](CO)NC(=O)[C@H](Cc2c[nH]c3ccccc23)NC(=O)[C@H]([C@@H](C)O)NC(=O)[C@H](CC(C)C)NC(=O)[C@H](Cc2c[nH]c3ccccc23)NC(=O)[C@H](CC(=O)O)NC(=O)[C@H]2CCCN2C(=O)[C@H](CCC(=O)O)NC1=O)[C@@H](C)O
notes: also called Ac-Thr-Tyr-[Cys(3MeBn)-Glu-pro-Asp-Trp-Leu-Thr-Trp-Ser-Cys]-NH2
B18: 3BP-3568 (peptide)
peptide: Ac-IYCE[dP]DWLTWSC-NH2
modifications: linker 3-12 via mXylylene
SMILES: CC[C@H](C)[C@H](NC(C)=O)C(=O)N[C@@H](Cc1ccc(O)cc1)C(=O)N[C@H]1CSCc2cccc(c2)CSC[C@@H](C(N)=O)NC(=O)[C@H](CO)NC(=O)[C@H](Cc2c[nH]c3ccccc23)NC(=O)[C@H]([C@@H](C)O)NC(=O)[C@H](CC(C)C)NC(=O)[C@H](Cc2c[nH]c3ccccc23)NC(=O)[C@H](CC(=O)O)NC(=O)[C@H]2CCCN2C(=O)[C@H](CCC(=O)O)NC1=O
notes: also called Ac-Ile-Tyr-[Cys(3MeBn)-Glu-pro-Asp-Trp-Leu-Thr-Trp-Ser-Cys]-NH2
B19: 3BP-3479 (peptide)
peptide: Ac-VYCE[dP]DWLTWE([Apr-AEEA-DOTA])C-NH2
modifications: linker 3-12 via mXylylene; reading uncertain
notes: also called Ac-Val-Tyr-[Cys(3MeBn)-Glu-pro-Asp-Trp-Leu-Thr-Trp-Glu(NH-Apr-O2Oc-DOTA′)-Cys]-NH2

What follows are binders tested against human carbonic anhydrase 9 (CAIX) (human, UniProt Q16790 38-459) (assay: FACS competition on HT-29 cells against tracer 3BP-2776; pIC50 category A = pIC50 >8.0).
Experimental: CAIX-expressing human HT-29 colorectal cancer cells (DSMZ, RRID: CVCL_0320) were cultured in McCoys's 5A modified medium (Biochrom, #F1015) including 10% fetal calf serum (FCS), 2 mM L-glutamine, 100 U/ml penicillin and 100 μg/mL streptomycin. Cells were detached with Accutase (Biolegend, #423201) and washed in FACS buffer (PBS including 1% FCS). Cells were diluted in FACS buffer to a final concentration of 500.000 cells per ml. 200 μL of the cell suspension were transferred to a u-shaped non-binding 96-well plate (Greiner) and cells were washed in ice-cold FACS buffer.
When biotinylated compounds were used an additional incubation step with 1 μg/mL APC-Streptavidin (Miltenyi; #130-106-791) in 50 μL FACS buffer for 30 minutes on ice was performed.
Cells were washed twice with ice-cold FACS buffer and analyzed in an Attune NxT flow cytometer (Thermo Fisher). Median fluorescence intensities (MFI) of the APC/Cy5-channel were calculated by Attune NxT software.

pIC50, > 8 pic50:
B1, B2, B3, B4, B5, B6, B7, B8, B9, B10, B11, B12, B13, B14, B15, B16, B17, B18, B19
